Measurements: publication PMC5862935, “YcfDRM is a thermophilic oxygen-dependent ribosomal protein uL16 oxygenase” (Extremophiles, 2018)

B1: ycfDRM (Rhodothermus marinus DSM 4252) (protein)
chain: MQLPETILGGLAPEEFLANYWQKRPLLIRQALPGFRSPITPEELAGLACEEGVTARLILEKGGAYPWEVRYGPFEPEDFVALPPTHWTLLVQEVDRLVPEVAALLETVRFVPNWRLDDIMVSYAPEGGTVGAHIDNYDVFLVQAWGRRRWQINHRPVEREELVPGLEVRLLAHFEPDAEWILEPGDVLYLPPRIPHYGVALEDCMTFSIGFRAPDQAELAEAMPRMAAWLDGGRRYADPDLTPADEPGEITPEALDQIQALLRALIDDRERLARWFGCIITEPRRGLPPEPPGRPLSAKQLHRRLQQGATLRRNAIPELAYVRHADGSATLFASGEAYELSPELADVAPLLTGRRPLTAETLRPWLERDDFLELLQTLIHSGILSLIPARKR
notes: pET28a NdeI/SacI, expressed in E. coli BL21(DE3); HisTrap and Superdex 75 purified
B2: ycfDEC (Escherichia coli K-12) (protein)
chain: MEYQLTLNWPDFLERHWQKRPVVLKRGFNNFIDPISPDELAGLAMESEVDSRLVSHQDGKWQVSHGPFESYDHLGETNWSLLVQAVNHWHEPTAALMRPFRELPDWRIDDLMISFSVPGGGVGPHLDQYDVFIIQGTGRRRWRVGEKLQMKQHCPHPDLLQVDPFEAIIDEELEPGDILYIPPGFPHEGYALENAMNYSVGFRAPNTRELISGFADYVLQRELGGNYYSDPDVPPRAHPADVLPQEMDKLREMMLELINQPEHFKQWFGEFISQSRHELDIAPPEPPYQPDEIYDALKQGEVLVRLGGLRVLRIGDDVYANGEKIDSPHRPALDALASNIALTAENFGDALEDPSFLAMLAALVNSGYWFFEG
notes: purified E. coli YcfD; construct not described in main text

Assays:
[1] = substrate: O=C(O)CCC(=O)C(=O)O; assay: MALDI-MS peptide hydroxylation assay, steady-state kinetics; type: biochemical, Rhodothermus marinus; conditions: co-substrates uL16RM peptide fragment and O2, Fe(II), ascorbate, 50 mM HEPES pH 7.5, 37 °C
[2] = substrate: O=C(O)CCC(=O)C(=O)O; assay: as above; type: biochemical, Escherichia coli; conditions: co-substrates uL16 peptide fragment and O2; Fe(II), ascorbate; temperature and pH for this row not explicitly stated in main text

| Protein | Km [1] [µM] | Km [2] [µM] |
| --- | --- | --- |
| B1 | 71.1 ± 12.2 | – |
| B2 | – | 8.6 ± 3.4 |
